Laboratory results: paper PMC5840378, “Cytochrome c speeds up caspase cascade activation by blocking 14-3-3ε-dependent Apaf-1 inhibition” (Cell Death & Disease, 2018)
Numbering of substitutions follows the chain as printed. In names and notes the source's numbering stands. No end group written: not given here.

T1: 14-3-3ε full length (14-3-3ε FL), recombinant (UniProt P62258 1-255)
T1 construct: 14-3-3ε (14-3-3 protein epsilon), full length, cloned NdeI-XhoI into pET-28a; Homodimer by ultracentrifugation and light scattering; The printed cloning primers seem to add a Met before Met1 and a Glu after the last residue; also called 14-3-3ε FL WT; source: E. coli BL21 (DE3), purified (Ni Sepharose)
T1 sequence (looked up): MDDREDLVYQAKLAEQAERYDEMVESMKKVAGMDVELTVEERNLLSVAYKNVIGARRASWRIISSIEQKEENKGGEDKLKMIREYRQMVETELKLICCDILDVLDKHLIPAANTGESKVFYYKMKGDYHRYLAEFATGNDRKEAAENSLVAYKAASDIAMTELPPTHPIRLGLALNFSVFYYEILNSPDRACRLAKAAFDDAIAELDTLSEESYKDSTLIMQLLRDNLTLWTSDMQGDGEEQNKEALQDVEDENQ

B1: 14-3-3ε C-terminal peptide (14-3-3ε_(234-255)) (peptide, UniProt P62258 234-255, looked up)
peptide: DMQGDGEEQNKEALQDVEDENQ
notes: 14-3-3ε, C-terminal tail, residues 234-255; also called non-acetylated peptide; C-terminal tail of 14-3-3ε; source: bought: Genosphere Biotechnologies (France)
B2: acetylated 14-3-3ε_(234-255) peptide (peptide, UniProt P62258 234-255, looked up)
peptide: Ac-DMQGDGEEQNKEALQDVEDENQ
notes: 14-3-3ε, C-terminal tail, residues 234-255, N-terminally acetylated; also called acetylated peptide
B3: fluorinated 14-3-3ε_(234-255) peptide (Lys244 covalently bound to 5-fluorindole) (peptide, UniProt P62258 234-255, looked up)
peptide: Ac-DMQGDGEEQNK(5‑fluorindole)EALQDVEDENQ
notes: 14-3-3ε, C-terminal tail, residues 234-255; source: acetylated 14-3-3ε_(234-255) peptide conjugated with 5-fluoroindole (formaldehyde, 24 h, 30 °C), dialyzed
B4: cytochrome c (Cc), recombinant (natural protein)
chain: not shown
modifications: heme group; 15N-labelled for the 2D NMR titrations
notes: Met80 is M81 in P99999); Reduced with sodium ascorbate in the NMR experiments; also called hemeprotein; reduced Cc; source: E. coli BL21 (DE3), purified (ionic chromatography, carboxy-methylcellulose)
B5: 14-3-3ε FL D21K (natural protein, UniProt P62258 1-255, looked up)
chain: T1 sequence (looked up) with D21K
notes: 14-3-3ε full length with D21K; source: E. coli BL21 (DE3), purified (Ni Sepharose); mutant obtained from Mutagenex Inc
B6: 14-3-3ε FL S59E (natural protein, UniProt P62258 1-255, looked up)
chain: T1 sequence (looked up) with S59E
notes: 14-3-3ε full length with S59E; source: E. coli BL21 (DE3), purified (Ni Sepharose); mutant obtained from Mutagenex Inc
B7: 14-3-3ε FL E92K (natural protein, UniProt P62258 1-255, looked up)
chain: T1 sequence (looked up) with E92K
notes: 14-3-3ε full length with E92K; source: E. coli BL21 (DE3), purified (Ni Sepharose); mutant obtained from Mutagenex Inc
B8: 14-3-3ε FL K50E (natural protein, UniProt P62258 1-255, looked up)
chain: T1 sequence (looked up) with K50E
notes: 14-3-3ε full length with K50E; source: E. coli BL21 (DE3), purified (Ni Sepharose); mutant obtained from Mutagenex Inc
B9: 14-3-3ε FL S187D (natural protein, UniProt P62258 1-255, looked up)
chain: T1 sequence (looked up) with S187D
notes: 14-3-3ε full length with S187D; source: E. coli BL21 (DE3), purified (Ni Sepharose); mutant obtained from Mutagenex Inc
B10: 14-3-3ε FL D99K (natural protein, UniProt P62258 1-255, looked up)
chain: T1 sequence (looked up) with D99K
notes: 14-3-3ε full length with D99K; source: E. coli BL21 (DE3), purified (Ni Sepharose); mutant obtained from Mutagenex Inc

Legend:
[1] = molecular target: B4; test: ITC; Auto-ITC200, 25 °C; 2-μL injections of 300 μM Cc into the cell with 20 μM 14-3-3ε species or peptide; 10 mM sodium phosphate pH 7.4; details: both partners purified
[2] = molecular target: B4; test: NMR titration; 50 μM reduced 15N-labelled Cc titrated with unlabeled 14-3-3ε FL (700 MHz) or 14-3-3ε_(234-255) peptide (600 MHz); 1D 1H and 2D [1H,15N] HSQC; 25 °C; 5 mM sodium phosphate pH 6.3, 0.1 M sodium ascorbate; CSP curves fitted with a one-site model; details: both partners purified
[3] = molecular target: B4; test: NMR titration; 1D 19F NMR of the fluorinated 14-3-3ε_(234-255) peptide titrated with Cc or BSA; 25 °C; 600 MHz; 10 mM sodium phosphate pH 6.3; details: both partners purified
[4] = molecular target: B9; test: ITC; Auto-ITC200, 25 °C; 2-μL injections of 300 μM Cc into the cell with 20 μM 14-3-3ε species or peptide; 10 mM sodium phosphate pH 7.4; details: both partners purified
[5] = molecular target: B1; test: as above; details: both partners purified
[6] = molecular target: T1, 14-3-3ε full length (14-3-3ε FL), …; test: as above; details: both partners purified
[7] = molecular target: B5; test: as above; details: both partners purified
[8] = molecular target: B8; test: as above; details: both partners purified
[9] = molecular target: B6; test: as above; details: both partners purified
[10] = molecular target: B7; test: as above; details: both partners purified
[11] = molecular target: B10; test: as above; details: both partners purified
[12] = molecular target: the molecule itself; test: AUC + other: dynamic light scattering; sedimentation velocity, 20 °C, 45,000 r.p.m., 37 μM, 5 mM sodium phosphate pH 6.3; DLS at 0.1 mg/mL, 25 °C, same buffer

Binder: B1
- Kd [1]: 16 µM
- Kd [2]: 49 µM

Binder: B2
- binding result [1]: binds

Binder: B3
- binding result [3]: binds

Binder: B4
- binding result [4]: binds
- stoichiometry N [5]: 1
- Kd [6]: 2.3 µM
- stoichiometry N [6]: 2 Cc per 14-3-3ε FL homodimer
- stoichiometry N [7]: 1
- stoichiometry N [8]: 1
- stoichiometry N [9]: 1
- stoichiometry N [10]: 1
- binding result [11]: binds

Binder: B5
- stoichiometry N [12]: 2

Binder: B6
- stoichiometry N [12]: 2

Binder: B7
- stoichiometry N [12]: 2

Binder: B8
- stoichiometry N [12]: 2

Binder: B9
- stoichiometry N [12]: 2

Binder: B10
- stoichiometry N [12]: 2
